The record followed here is patent US20260098093A1 (HUMMINGBIRD BIOSCIENCE PTE, published 2026).

For test [1], the target named is T1, recombinant human VISTA-Fc protein (R&D #7126-B7) (human, UniProt Q9H7M9 33-194).
T1 construct: Bought protein; also called Fc-tagged human VISTA; not shown: Fc part of a bought fusion protein
T1 sequence: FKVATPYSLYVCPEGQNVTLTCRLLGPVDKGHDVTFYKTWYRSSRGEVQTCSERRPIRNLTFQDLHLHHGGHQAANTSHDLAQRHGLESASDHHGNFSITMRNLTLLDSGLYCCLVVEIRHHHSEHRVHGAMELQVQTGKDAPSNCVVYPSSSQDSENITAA
Description: ELISA, VSIG3-Fc on plate-bound human VISTA-Fc. (An ELISA detects its analyte on a solid surface through an enzyme-linked reagent.)

For a further test, the target named is T2, B7H7 (human, UniProt Q9UM44 23-344, limits assumed).
T2 construct: also called HHLA2
T2 sequence (looked up): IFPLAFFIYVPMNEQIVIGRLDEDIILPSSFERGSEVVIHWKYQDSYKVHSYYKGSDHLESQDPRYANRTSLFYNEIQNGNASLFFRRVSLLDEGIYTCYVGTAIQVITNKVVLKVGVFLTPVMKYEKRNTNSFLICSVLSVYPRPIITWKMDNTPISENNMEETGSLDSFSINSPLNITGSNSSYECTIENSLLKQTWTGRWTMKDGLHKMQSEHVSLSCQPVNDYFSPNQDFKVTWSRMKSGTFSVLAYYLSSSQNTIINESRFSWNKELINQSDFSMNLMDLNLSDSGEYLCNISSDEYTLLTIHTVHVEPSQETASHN
Briefly: ELISA: plate coated with the named human antigen, 4M2-C12-mIgG2a titrated, absorbance 450 nm.

A further test deals with T3, B7H4 (human, UniProt Q7Z7D3 29-258, limits assumed).
T3 construct: also called VTCN1
T3 sequence (looked up): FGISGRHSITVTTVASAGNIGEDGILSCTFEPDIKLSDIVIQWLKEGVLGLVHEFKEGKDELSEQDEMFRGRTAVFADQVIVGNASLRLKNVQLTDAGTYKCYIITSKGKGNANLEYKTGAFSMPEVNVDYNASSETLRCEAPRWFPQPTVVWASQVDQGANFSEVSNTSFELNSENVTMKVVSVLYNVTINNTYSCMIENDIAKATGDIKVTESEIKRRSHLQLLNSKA
The description is as above.

The next test deals with T4, CTLA-4 (human, UniProt P16410 36-162, limits assumed).
T4 sequence (looked up): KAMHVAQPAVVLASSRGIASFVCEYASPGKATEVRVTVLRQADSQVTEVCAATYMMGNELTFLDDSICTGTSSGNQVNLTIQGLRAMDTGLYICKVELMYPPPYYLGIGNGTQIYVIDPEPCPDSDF
The test is described as above.

The target of a further test is T5, B7H6 (human, UniProt Q68D85 25-262, limits assumed).
T5 construct: also called NCR3LG1
T5 sequence (looked up): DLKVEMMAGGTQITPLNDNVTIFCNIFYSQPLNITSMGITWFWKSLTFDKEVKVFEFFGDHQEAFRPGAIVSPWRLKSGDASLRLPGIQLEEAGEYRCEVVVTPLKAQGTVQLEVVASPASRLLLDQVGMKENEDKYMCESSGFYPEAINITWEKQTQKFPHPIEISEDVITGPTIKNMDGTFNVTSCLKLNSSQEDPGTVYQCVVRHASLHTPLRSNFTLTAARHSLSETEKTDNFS
The description is as above.

The next test concerns the target PD-1 (human, UniProt Q15116 25-167, limits assumed). The description is as above.
The target in the next test is T6, B7H3 (human, UniProt Q5ZPR3 29-461, limits assumed).
T6 construct: also called CD276
T6 sequence (looked up): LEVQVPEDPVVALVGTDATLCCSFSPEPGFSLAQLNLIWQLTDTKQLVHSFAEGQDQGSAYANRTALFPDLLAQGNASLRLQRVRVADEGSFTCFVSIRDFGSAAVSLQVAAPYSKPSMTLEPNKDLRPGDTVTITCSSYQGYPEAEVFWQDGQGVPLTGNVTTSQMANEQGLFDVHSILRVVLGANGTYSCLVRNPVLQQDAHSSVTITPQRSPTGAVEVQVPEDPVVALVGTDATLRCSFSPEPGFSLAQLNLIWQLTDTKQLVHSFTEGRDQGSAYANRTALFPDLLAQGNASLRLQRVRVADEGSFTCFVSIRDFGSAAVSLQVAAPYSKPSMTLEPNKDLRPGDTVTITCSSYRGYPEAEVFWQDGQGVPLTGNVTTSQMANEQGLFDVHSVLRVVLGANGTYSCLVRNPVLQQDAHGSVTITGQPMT
Described as above.

Another test has as its target B7H1/PDL-1 (human, UniProt Q9NZQ7 19-239, limits assumed). Described as above.
For test [2], the target named is T7, HIS-tagged human VISTA (human, UniProt Q9H7M9 33-194).
T7 construct: Residues 33-194 are stated only for the protein used in HDXMS (Sino Biological #13482-H08H); also called human VISTA-HIS; not shown: HIS tag
T7 sequence: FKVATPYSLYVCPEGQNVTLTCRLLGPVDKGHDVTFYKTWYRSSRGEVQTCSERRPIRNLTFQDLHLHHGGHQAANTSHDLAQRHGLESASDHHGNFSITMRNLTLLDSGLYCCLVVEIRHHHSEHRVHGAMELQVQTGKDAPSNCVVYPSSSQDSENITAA
Briefly: ELISA: plate coated with the named human antigen, 4M2-C12-mIgG2a titrated, absorbance 450 nm; tag of the coated VISTA not stated.

Test [3] deals with T7, HIS-tagged human VISTA. Briefly: BLI (Octet) epitope binning: human VISTA-HIS on anti-Penta-HIS sensor, antibody at 400 nM (concentration from paragraph 696). For orientation: Biolayer interferometry detects binding as a change in optical thickness at a sensor tip.
Test [4] deals with T1, recombinant human VISTA-Fc protein (R&D …). Briefly: competition ELISA: plate-bound human VISTA-Fc, competitor biotinylated VSIG3-Fc at 24 nM. As for the experimental part: For the inhibition assay, 384-well plates were coated with 2 μg/ml of human VISTA-Fc recombinant protein (R&D #7126-B7) diluted in PBS for 24 hrs at 4° C. […] Post incubation, plates were washed three times with TBST and incubated with streptavidin HRP (R&D #DY998) antibody for 1 hr at room temperature followed by three further washes. Colorimetric reactions were developed using standard protocol as described for ELISA above.

The target is the same in test [5]. Briefly: competition ELISA: plate-bound human VISTA-Fc, competitor LRIG1.HIS at 1 µg/ml. As for the experimental part: For inhibition assay, 384-well plates were coated with 5 μg/ml of human VISTA-Fc recombinant protein (R&D #7126-B7) diluted in PBS for 24 hrs at 4° C. […] Post incubation, plates were washed three times with TBST and incubated with anti-HIS HRP (Abcam #ab1187) antibody for 1 hr at room temperature followed by three further washes. Colorimetric reactions were developed using standard protocol as described for ELISA above.

B1: recombinant human VSIG3-Fc (Fc fusion, UniProt Q5DX21 23-241, looked up)
chain: LEVSESPGSIQVARGQPAVLPCTFTTSAALINLNVIWMVTPLSNANQPEQVILYQGGQMFDGAPRFHGRVGFTGTMPATNVSIFINNTQLSDTGTYQCLVNNLPDIGGRNIGVTGLTVLVPPSAPHCQIQGSQDIGSDVILLCSSEEGIPRPTYLWEKLDNTLKLPPTATQDQVQGTVTIRNISALSSGLYQCVASNAIGTSTCLLDLQVISPQPRNIG
modifications: biotinylated in the inhibition ELISA (sites not given)
notes: Bought protein; also called VSIG3-Fc (R&D #9229-VS); not shown: Fc part of a bought fusion protein
Take B1: the EC50 (commonly the concentration giving half of the maximal effect) in test [1] was 24 nM.

B2: 4M2-C12-mIgG2a (antibody, V domains shown)
VH: EVKLVESGPGLVKPSQSLSLTCTVTGYSITSDYAWNWIRQFPGNKLEWMGYITYSGNISYNPSLRSRISITRDTSKNQFFLQLNSVTPEDTATYSCARSLYYPWYFDVWGAGTTVTVSS
VL: DIVITQTPAILSTSPGEKVTMTCRASSSVGYIHWYQQKPGSSPKPWIYATSNLASGVPARFSGSGSGTSNSLTITRVEAEDAATYYCQQWSSYPPITFGGGTKLEVKR
notes: also called V4P mIgG2a
As for B2, the binding result with B7H7, with B7H4, with CTLA-4, with B7H6, with PD-1 and in the test with B7H3 was “no binding (tested: about 2e-8 M)” each time. Further, the binding result with B7H1/PDL-1 is “no binding (tested: about 2e-8 M)”. The EC50 (read off the curve) (in general, the midpoint of the concentration-response curve) with HIS-tagged human VISTA [2] was about 0.2 nM.

B3: IGN175A (antibody, human IgG1, kappa, V domains shown)
VH: QVQLQQSGAELMKPGASVKISCKATGYTFSTHWIEWVKQRPGHGLEWIGEILPGSGSTSYNEKFKGKATFTADTSSNTAYMQLSSLTSEDSAVYYCARWLLYYYAMDYWGQGTSVTVSS
VL: DVLMTQTPLSLPVSLGDQASISCRSSQSIVHSNGNTYLEWYLQKPGQSPKLLIYKLSNRFSGVPDRFSGSGSGTDFTLKISRVEAEDLGVYYCFQGSHFPYTFGGGTKLEIKR
As to B3, the binding result in the test with HIS-tagged human VISTA [3] was “binds”.

B4: V4-C26 hIgG4 (antibody)
heavy: not shown
light: EIVLTQSPATLSLSPGERATLSCRASSSVGYIHWYQQKPGQAPRPIIYTTSNRATGIPARFSGSGSGTDNTLTISSLEPEDSAVYYCQQWSSYPPITFGGGTKLEVKRTVAAPSVFIFPPSDEQLKSGTASVVCLLNNFYPREAKVQWKVDNALQSGNSQESVTEQDSKDSTYSLSSTLTLSKADYEKHKVYACEVTHQGLSSPVTKSFNRGEC
notes: Human IgG4 (S228P) / kappa; APC-conjugated in the flow cytometry assays; also called HMBD-002; V4-C26 hIgG4(S228P)
As to B4, the IC50 (as a rule, the point on the concentration scale where inhibition reaches its midpoint) in test [4] was 0.673 nM; in [5], 3.4 nM.
